In test [1] the target is ΔIBB-TgImpα (T. gondii importin α lacking the IBB domain, amino acids 92-545, C-terminal His-tag) (Toxoplasma gondii). In words: pull-down.
In test [2] the target is PfTGS1-NLS-GFP (bi-partite NLS of P. falciparum trimethyl guanosine synthase 1 fused to GFP) (Plasmodium falciparum). Description: SPR. A general note: In SPR one partner is held on a chip, and binding of the other changes the refractive index at the surface.
Test [3] shares this target. In words: SPR. The source holds these as a separate data set.
For the next test, the target named is SV40 T-ag-NLS-GFP (SV40). In words: AlphaScreen or HTRF.

The source of these data is publication doi:10.1101/2022.10.06.510747.

Like-named read-outs stand apart in the source and are kept apart here.

Substance “PfTGS1-NLS-GFP (bi-partite NLS of P. falciparum trimethyl guanosine synthase 1 fused to GFP) (domain or fragment)” registered a relative band intensity (pulled down by ΔIBB-TgImpα over WT-TgImpα) in test [1] of 4.6.

For “WT-TgImpα (full-length Toxoplasma gondii importin α with C-terminal His-tag) (natural protein)”, the values for the dissociation constant (Kd) in test [2] and in test [3] were 0.00326 µM and 0.83 µM, respectively.

In test [3], “ΔIBB-TgImpα (T. gondii importin α lacking the IBB domain, amino acids 92-545, C-terminal His-tag) (domain or fragment)” gave a dissociation constant (Kd) of 0.24 µM.

Substance “AAA-TgImpα (KKR/AAA mutant of the third basic cluster) (natural protein)” displayed a Kd in test [2] of 0.28 µM.

“WT-TgImpα with a C-terminal GST tag (from UniProt A0A125YID0 1-545) (natural protein)”: the dissociation constant (Kd) with SV40 T-ag-NLS-GFP (SV40) is 0.0035 µM.

For “pre-dimerized TgImpα/MmImpβ1 (from UniProt P70168 1-876) (complex)”, the Kd with SV40 T-ag-NLS-GFP (SV40) amounted to 0.0015 µM.

“SKR-TgImpα (KKR/SKR mutant of the third basic cluster) (natural protein)” returned a dissociation constant Kd in test [2] of 0.41 µM.

With “KRR-TgImpα (KKR/KRR mutant of the third basic cluster) (natural protein)”, in test [2], the dissociation constant Kd was 1.45 µM.

As for “MmHinge-TgImpα (TgImpα chimera containing the hinge motif from MmImpα2) (from UniProt P52293 57-70)”, in test [2], the Kd amounted to 0.0051 µM.

The Kd is the constant that tells how readily two partners part at equilibrium.
